Reference: the DeepSol protein solubility set

Test: soluble on expression in E. coli; label from the status in PepcDB or PDB records

Row | Sequence | soluble on expression in E. coli
1 | MSLVDFIDDNRGEFGVEPICTVLRSAGLQVALSTYYDAKARVPSARALRDAVLGPALCQLWKDNYCVYGARKLWKTARRDGHDVGRDQVARLMRAAGIEGVRRGKRVRTTKADPAAARHPDLVHRNFAAAAPNQLWATDLTFVPTWAGVAYVCFIIDAHSRMIVGWRVASHMRTSMVLDALEMARWSRGTTLQDLICHSDAGSQFTSIRYGERLAEIGAVPSIGTVGDSFDNALAETVNGYYKAELIYGPARSRPWKTVEDVELATLSWVHWHNTSRLHSYLGDIPPTEFEAAFYDAYRTDQPLIGIQEGHHHHHH | not soluble
2 | MSLVENLSLEPQPKRRKIDPEVKESPSRNCSHWFVRNKVCASCNTIVDNYQGRSFDYLYTGIQMSNEALGFTKRLISQTSWLEDKKLHLVLDLDHTLVHTIKVSQLSESEKYITEEVESRKDLRRFNTGFPEESLIKLRSFVHQFLKECNEMFSLYVYTKGGYDYAQLVLEMIDPDKIYFGNRVITRRESPGFKTLDLVLADERGIVVVDDKSSVWPHDKKNLLQIARYKYFGDQSCLLSECKKKIDESDEKGPLNTALRFLMDVHEEFFCDWSRKDLDSVDVRPLLKEISLRWKRKADGVV | soluble
3 | MSLVHPAGMAIMISGGIVQKIAPSDDILSEFAPWYPANSVSTDVEVIDIGEMSVVPGFVDSHTHLPWSGDRTNELTMRLRGKTYREIAQSGGGIMKTVSHTRSTPKRNLVASGISRVQECMRNGTTTLEAKSGYGLDLDSEVKLLEAISEIDRSTAIDIRATWLGAHDFPPEMGREDYVEHLISDQLPVISELSLARWVDVFCEQGWFTNEQTEDIVKASKDYGMKSRLHVDEFVDSGGLALAAELGSVSADHVACSNDDSRVSAAESGTVQTFLPGTPYVLGKSLELPIKKCITEDWPFSIATDFNPNCPITSLPLIGSFVTHRLGVDPIASLVAVTRNPATTMFDEEEPRGVISEGSIADMNVLWSSSADSWCQTPGSSPVRDTIKNGIIVNSNKTYEGHHHHHH | soluble
4 | MSLVKPKYQRVVLKLSGEALAGEDGFGIKPPVIKEIVQEIKEVHELGIEMAIVVGGGNIWRGQIGAQMGMERAQADYMGMLATVMNALALQDTLENLGVPTRVQTSIEMRQIAEPYIRRRAERHLEKGRVVIFAGGTGNPYFSTDTTAALRAAEVDADVILMAKNNVDGVYSADPRVDETATKFEELTHLDVISKGLQVMDSTASSLSMDNDIPLVVFNLNEAGNIRRAILGENIGTTVRGKEGHHHHHH | soluble
5 | MSLVMWLMAHSEKLEDLLEGKPVVIIEDGELAWSKLNNSNMTEFEFFMELRLRGVEQLGQVRLAILETNGQISVYFFEDDKVKPGLLILPSDCTQRYKVVPESADYACIRCSEIIHMNAGEKQLCPRCANPEWTKASRAKRVTEGHHHHHH | soluble
6 | MSLVNMEFLKRSFAPLTEKQWQEIDNRAREIFKTQLYGRKFVDVEGPYGWEYAAHPLGEVEVLSDENEVVKWGLRKSLPLIELRATFTLDLWELDNLERGKPNVDLSSLEETVRKVAEFEDEVIFRGCEKSGVKGLLSFEERKIECGSTPKDLLEAIVRALSIFSKDGIEGPYTLVINTDRWINFLKEEAGHYPLEKRVEECLRGGKIITTPRIEDALVVSERGGDFKLILGQDLSIGYEDREKDAVRLFITETFTSRLSTRRPEGHHHHHH | soluble
7 | MSLVRTALTIAGSDSGGGAGIEADLKTFTAFGVHGLVAITSVTAQNTQTVTAIHDIPPEVVSEQIRVVAEDIGVDAAKTGMLSNAEIIKAVAKTVKNYDFPLVVDPVMIAKSGAPLLREDAVDALIKYILPLATLVTPNRFEAEKLTGMEIRNVNDAKLAAKKIAEETGAKAVIVKGGHLEGKEAIDVLYHNGAYKLYRAPKVDGCTHGTGCSFSAAITANLAKGLSLEDAVSVAKEFITLGISTGHKIGHGHCPVNQSAWIEIPAEKWRIYEELTRAVREFERINPIKLIPEVGTNFVYALPFPYARTKEDVAGVKGRIVRVGNEVRAVGSVEFGASDHLARAILTFMRFYPKYRSAINVRYSEEIVELAKEQGFTVSFYDRREEPIEVKEKEGATIPWGIEVAVKRINKRPDVIYHLGDIGKEPMILIFGRNPREVLDKLRLLEGHHHHHH | soluble
8 | MSLVTFSIRIISSDRIFLVAEVKALERVYVIGHKNPDTDSVCSAIGYAHFKNNVEKGKTFIPARSGDLTNESLFVLKYFGMNPPLHIETLEPTVEDLELKNPIFVTPDTSAYDVAMLMESRGIKNVPVVSKEKMIGVVTESNIARVYVRRLKIEPLVIHPVPFDQLVRILKAEVVCDYMKEKTVSGKVHIAVDALHVLLGKIEIGDVVIVGDNEPAQIALLEKGAKLMIVVNNAPVSNRVLEIAKEKNAAVLRVKFDAFSAAKLINLSLPVTLVMSKKFPTVTKKDTLEEVKEIVFTSKIRAAFVEDEKGRLCGVITRTDLLKDVRKKVILVDHNEITQAPEGVEKAEILEIIDHHRLGGLSTLNPVFFYNEPVGSTSTIVAEFFLKNGVKMEREIAGILLSGIVSDTLFFKLSTTTEKDRKMANFLADVAKLDLEKFAKKLLKEGMKIPEDVDPAELLKRDVKVYEMGEESFAVSQIMTSDFSTLLKEKERFMNTLKTLKGEFGVKHFFVLFTNPVEEASLLMMDGDQKLVEKAFNAEKKDGLFLLKGVMSRKKDFVPKIGEVLRREREGHHHHHH | soluble
9 | MSLVTIKDVALKAGVSPSTVSRVIKGNKRISEATISKVKKVMEELNYFPNTAARTLITNQTYKIGLVLKGSEEPIRLNPFYINVLLGISETCNQHGYGTQTTVSNNMNDLMDEVYKMIKQRMVDAFILLYSKENDPIKQMLIDESMPFIVIGKPTSDIDHQFTHIDNDNILASENLTRHVIEQGVDELIFITEKGNFEVSKDRIQGFETVASQFNLDYQIIETSNEREVILNYMQNLHTRLKDPNIKQAIISLDAMLHLAILSVLYELNIEIPKDVMTATFNDSYLTEIASPPQTCIDIKPRMLGQQAGSAILNILKNKAQDVIELVIIDTELKIRKSTQREGHHHHHH | soluble
10 | MSLVTVDQKPNLIRHLHDLSGVWQTDITYIQLTNHRWVYLATVLDPEKRKVLGYKIGDTMTAELATSALQMALDKHRKPLIIHSDMGSQYTSAEFNIKCQNYGLKHSYSLKGHPYDNGRMEAFHSILKREEVYLKAYQTLTEVQAAIGWYINFYNRNRISNVAEGHHHHHH | not soluble
11 | MSLWLPSEATVYLPPVPVSKVVSTDEYVARTNIYYHAGTSRLLAVGHPYFPIKKPNNNKILVPKVSGLQYRVFRIHLPDPNKFGFPDTSFYNPDTQRLVWACVGVEVGRGQPLGVGISGHPLLNKLDDTENASAYAANAGVDNRECISMDYKQTQLCLIGCKPPIGEHWGKGSPCTQVAVQPGDCPPLELINTVIQDGDMVDTGFGAMDFTTLQANKSEVPLDICTSICKYPDYIKMVSEPYGDSLFFYLRREQMFVRHLFNRAGTVGENVPDDLYIKGSGSTANLASSNYFPTPSGSMVTSDAQIFNKPYWLQRAQGHNNGICWGNQLFVTVVDTTRSTNMSLCAAISTSETTYKNTNFKEYLRHGEEYDLQFIFQLCKITLTADVMTYIHSMNSTILEDWNFGLQPPPGGTLEDTYRFVTSQAIACQKHTPPAPKEDPLKKYTFWEVNLKEKFSADLDQFPLGRKFLLQLGLKAKPKFTLGKRKATPTTSSTSTTAKRKKRKL | soluble
12 | MSLYAAYAGNLDARLMTRRAPHSPLRATGWLNGWRLTFGGEHMGWEGALATLVEDPISQVFVSLYDIAPMDEDSLDRWEGVGLDIYRRTRVRIHTLDGEEGAWTYVLNAYEGGLPSARYLGEIADAAESSGAPHDYVMELRKRPCLEHHHHHH | not soluble
13 | MSLYAAYAGNLDPRLMTRRAPHSPLRATGWLNDWRLTFGGEHMGWEGALATIVEAPRSQVFVALYDIAPMDEDSMDRWEGVGLDIYRRMRVRVHTLEGEEAAWVYVLNGYEGGLPSARYLGELADAAESAGAPHDYVMELRKRPCLEHHHHHH | soluble
14 | MSLYIETVRGKIKPEEFGVCACHEHLHIDLSRIKNDSDTALVEVALVLSDLKSFVSHGGQAIVDVTNDGMGRDVEKLVVMSEALDLHIVASTGCYKDPFIPEEKQMWTREQFAEWMIDEIMYGISGTTVKPGVIGEIGSSLNEFKPVELELFYGAIEAAKTTKLPLSTHTTLGTLAMEQIRLFDSESLPLDQVIIGHQDLNDDDEQVLKVLSTGAYVALDTIGKENYRSDEARLNSLLLFLEKGYEDQLLLSSDVTRTSHLLVHGGQGYDVVLRSFIPKLRAKGADEATIQKLLVKTHKKHLASREGHHHHHH | not soluble
15 | MSLYISSALGPVDSGNKKEIEVEIPKGSSTSKIGEILEEKGAVKSGTVFSFYTKAKSKNLQAGTYLLNPSMSAKDVMEQMSSGNVHRPALYKVTIKEGAQVTEIAETVANELKWNKDDVVRQLNDKAFIQKMQQKYPKLLTDKIFDSNIKYPLEGYLYPATYSFYKKDTTLEEVVIPMLEKTNAIIVQNEAKMKAKNWDVHQLLTLSSLIEEEATGFTDRQKISSVFYNRLAKGMPLQTDPTVLYALGKHKQRVLYEDLKVNSPYNTYVVKGLPVGPIANSGKHSVEAALEPTQTDYYYFLAAPTGEVYYAKTLEEHNALKQKYITKKQEGHHHHHH | soluble
16 | MSLYKGYLIDLDGTIYKGKDRIPAGETFVHELQKRDIPYLFVTNNTTRTPESVKEMLAQNFNIDTPLSTVYTATLATIDYMNDLGLEKTVYVVGEAGLKEAIKAAGYVEDKEKPAYVVVGLDWQVDYEKFATATLAIQKGAHFIGTNPDLNIPTERGLLPGAGSLITLLEVATRVKPVYIGKPNAIIMDKAVEHLGLEREELIMVGDNYLTDIRAGIDNGIPTLLVTTGFTKAEEVAGLPIAPTHVVSSLAEWDFDENEGHHHHHH | soluble
17 | MSLYKIDFSKGLVPAILQDNQTKQVLMLGYMNQEAFDKTIEDGVVCFYSRSKQRLWTKGETSGHTQLVKDIHVDCDNDTILIDVIPNGPTCHTGSQSCFNTEVPFSVQTLAQTVQDSAQSNNEKSYTKYLLTEGIEKITKKYGEEAFEVVIEAIKGDKKAFVSEVADELYHLFVLMHALGVDFSEIEAELARRHHKRNNFKGERQNIEQWEGHHHHHH | soluble
18 | MSLYKKYLLLGVSLCMLNACNESKSVSLEGSLDGIQADSIYLYQVDNEHYGSVKLIKSIAVTDGRFAYPTDSIQAGLYCFSLQNMERGEYLQQYANLFLEPKSMQLTLGKDKYDQLSLHATGSALQEQYEALQEAKYVAGNRMVLDSLDHMFYEAREKGDREEMERIREVSSPYYESASEQTRKLINGEIAKNKGSYFGLYLYYTYRFQNHTFNTVEEIDEARNFIGSFDEASRRSGIYVKMQEGLDKFARCATGSVAPAITGIDLKGNSVSLNDFKGKYVLVDFWFAGCSWCRKETPYLLKTYNAFKDKGFTIYGVSTDRREEDWKKAIEEDKSYWNQVLLQKDDVKDVLESYCIVGFPHIILVDPEGKIVAKELRGDDLYNTVEKFVNGAKEGHHHHHH | soluble
19 | MSLYKLIALDMDGTLLNSQKQISPRTKQAIAQARQQGIQVVLASGRPLDGMRSKLEELHLTTENDYVLYYNGSMVANVGTGEIIHQQIIDGKAAKRVATLAQEFGLNTHAFSQIHGLITPKTSQYTEVEASINGLNITEMDFAQLADDHPIIKAMIVGEPEKLTQAIAQLPAQWREEFTVVQSAPFFLEFLNTGSNKGIGVQAIAAHLGIQASEVICMGDAENDHHMLQYAGLGIAMANAMEETKHIADHITLSNDHDGVAVAIERFALGCFSEGHHHHHH | soluble
